Measurements as given in patent US20250352661A1 (MYTHIC THERAPEUTICS, published 2025).
Changes are numbered by the printed parent chain. In names and notes the source's numbering stands.

B1: MYT3315 (antibody, V domains shown)
VH: EVQLVESGGGLVQPGGSLRLSCAVSGFSLTSYGVHWVRQATGKGLEWLGVIWAGGSTNYNSALMSRLTISKENAKSSVYLQMNSLRAGDTAMYYCATHMITEDYYGMDYWGQGTTVTVSS
VL: DIVMTQSPDSLAVSLGERATINCKSSQSLLNSRTRKNYLAWYQQKPGQSPKLLIYWASTRHSGVPDRFSGSGSGTDFTLTISSLQAEDVAVYYCKQSYNLPTFGGGTKVEIK
B2: MYT8415 (antibody, V domains shown)
VH: EVQLVESGGGLVQPGGSLRLSCTASGLDFRRTNYICWVRQAPGKGLEWVGCIYIADVVHYYASWAKGRFTFSRDTSKNTVYLQMNSLRAEDTAVYYCARGADGGFVYGMDLWGQGTLVTVSS
VL: EIVMTQSPSTLSASVGDRVIITCQASQSIGNYLSWYQQKPGKAPKRLIYSASTLPSGVPSRFSGSGSGAEFTLTISSLQPDDFATYYCQNNHWLAGYGHPFGQGTKLTVL
B3: MYT9776 (antibody, V domains shown)
VH: EVQLVESGGGLVQPGGSLRLSCTASGFSFSGHYWICWVRQAPGKGLEWVGCIHGGSHDITYYASWAKGRFTISRDTSKNTVYLQKTSLRAEDTAVYYCASDTSYTAYGNFYFNLWGQGTLVTVSS
VL: EIVMTQSPSPLSASVGDRVIITCQSSQSVLNNNWLAWYQQKPGKAPKLLIYDASSLASGVPSRFSGSGSGAEFTLTISSLQPDDFATYYCQGEFSCGSADCNAFGQGTKLEIK
B4: MYT5712 (antibody, V domains shown)
VH: QEQLEESGGDLVKPGASLTLTCTASGLDFRRTNYICWVRQAPGKGLEWIGCIYIADVVHYYASWAKGRFTFSKTSSTTVTLQMTSLTAADTATYFCARGADGGFVYGMDLWGPGTLVTVSS
VL: DVVMTQTPASVSEPVGGTVTIKCQASQSIGNYLSWYQQKPGQRPKRLIYSASTLPSGVPSRFKGAGSGTEFTLTISDLESADAATYYCQNNYWLAGYGHPFGGGTEVVVK
notes: chimeric antibody (rabbit variable domains, human constant regions); also called 15G7; chimeric 15G7 RabMAb
B5: MYT6100 (antibody, V domains shown)
VH: B4 VH with Y60H
VL: B4 VL
notes: chimeric rabbit 15G7 variant (rabbit variable domains, human constant regions); also called 15G7 VH Y60H
B6: MYT6108 (antibody, V domains shown)
VH: B4 VH with A97H
VL: B4 VL
notes: chimeric rabbit 15G7 variant (rabbit variable domains, human constant regions); also called 15G7 VH A97H
B7: MYT6106 (antibody, V domains shown)
VH: B4 VH with K66H
VL: B4 VL
notes: chimeric rabbit 15G7 variant (rabbit variable domains, human constant regions); also called 15G7 VH K66H
B8: MYT6089 (antibody, V domains shown)
VH: B4 VH with I35H
VL: B4 VL
notes: chimeric rabbit 15G7 variant (rabbit variable domains, human constant regions); also called 15G7 VH I35H
B9: MYT6097 (antibody, V domains shown)
VH: B4 VH with V57H
VL: B4 VL
notes: chimeric rabbit 15G7 variant (rabbit variable domains, human constant regions); also called 15G7 VH V57H
B10: MYT6093 (antibody, V domains shown)
VH: B4 VH with Y53H
VL: B4 VL
notes: chimeric rabbit 15G7 variant (rabbit variable domains, human constant regions); also called 15G7 VH Y53H
B11: MYT6109 (antibody, V domains shown)
VH: B4 VH with R98H
VL: B4 VL
notes: chimeric rabbit 15G7 variant (rabbit variable domains, human constant regions); also called 15G7 VH R98H
B12: MYT6087 (antibody, V domains shown)
VH: B4 VH with N33H
VL: B4 VL
notes: chimeric rabbit 15G7 variant (rabbit variable domains, human constant regions); also called 15G7 VH N33H
B13: MYT6103 (antibody, V domains shown)
VH: B4 VH with S63H
VL: B4 VL
notes: chimeric rabbit 15G7 variant (rabbit variable domains, human constant regions); also called 15G7 VH S63H
B14: MYT6098 (antibody, V domains shown)
VH: B4 VH with V58H
VL: B4 VL
notes: chimeric rabbit 15G7 variant (rabbit variable domains, human constant regions); also called 15G7 VH V58H
B15: MYT6094 (antibody, V domains shown)
VH: B4 VH with I54H
VL: B4 VL
notes: chimeric rabbit 15G7 variant (rabbit variable domains, human constant regions); also called 15G7 VH I54H
B16: MYT6096 (antibody, V domains shown)
VH: B4 VH with D56H
VL: B4 VL
notes: chimeric rabbit 15G7 variant (rabbit variable domains, human constant regions); also called 15G7 VH D56H
B17: MYT6110 (antibody, V domains shown)
VH: B4 VH with G99H
VL: B4 VL
notes: chimeric rabbit 15G7 variant (rabbit variable domains, human constant regions); also called 15G7 VH G99H
B18: MYT6095 (antibody, V domains shown)
VH: B4 VH with A55H
VL: B4 VL
notes: chimeric rabbit 15G7 variant (rabbit variable domains, human constant regions); also called 15G7 VH A55H
B19: MYT6105 (antibody, V domains shown)
VH: B4 VH with A65H
VL: B4 VL
notes: chimeric rabbit 15G7 variant (rabbit variable domains, human constant regions); also called 15G7 VH A65H
B20: MYT6086 (antibody, V domains shown)
VH: B4 VH with T32H
VL: B4 VL
notes: chimeric rabbit 15G7 variant (rabbit variable domains, human constant regions); also called 15G7 VH T32H
B21: MYT6107 (antibody, V domains shown)
VH: B4 VH with G67H
VL: B4 VL
notes: chimeric rabbit 15G7 variant (rabbit variable domains, human constant regions); also called 15G7 VH G67H
B22: MYT6085 (antibody, V domains shown)
VH: B4 VH with R31H
VL: B4 VL
notes: chimeric rabbit 15G7 variant (rabbit variable domains, human constant regions); also called 15G7 VH R31H
B23: MYT6092 (antibody, V domains shown)
VH: B4 VH with I52H
VL: B4 VL
notes: chimeric rabbit 15G7 variant (rabbit variable domains, human constant regions); also called 15G7 VH I52H
B24: MYT6084 (antibody, V domains shown)
VH: B4 VH with R30H
VL: B4 VL
notes: chimeric rabbit 15G7 variant (rabbit variable domains, human constant regions); also called 15G7 VH R30H
B25: MYT6088 (antibody, V domains shown)
VH: B4 VH with Y34H
VL: B4 VL
notes: chimeric rabbit 15G7 variant (rabbit variable domains, human constant regions); also called 15G7 VH Y34H
B26: MYT6099 (antibody, V domains shown)
VH: B4 VH with H59A
VL: B4 VL
notes: chimeric rabbit 15G7 variant (rabbit variable domains, human constant regions); also called 15G7 VH H59A
B27: MYT6101 (antibody, V domains shown)
VH: B4 VH with Y61H
VL: B4 VL
notes: chimeric rabbit 15G7 variant (rabbit variable domains, human constant regions); also called 15G7 VH Y61H

These binders were tested against T1, LRRC15 on the surface of LRRC15+ cells (SAOS-2, U87MG) (UniProt Q8TF66 22-581, limits assumed) (assay: cell-based or functional assay).
T1 sequence (looked up): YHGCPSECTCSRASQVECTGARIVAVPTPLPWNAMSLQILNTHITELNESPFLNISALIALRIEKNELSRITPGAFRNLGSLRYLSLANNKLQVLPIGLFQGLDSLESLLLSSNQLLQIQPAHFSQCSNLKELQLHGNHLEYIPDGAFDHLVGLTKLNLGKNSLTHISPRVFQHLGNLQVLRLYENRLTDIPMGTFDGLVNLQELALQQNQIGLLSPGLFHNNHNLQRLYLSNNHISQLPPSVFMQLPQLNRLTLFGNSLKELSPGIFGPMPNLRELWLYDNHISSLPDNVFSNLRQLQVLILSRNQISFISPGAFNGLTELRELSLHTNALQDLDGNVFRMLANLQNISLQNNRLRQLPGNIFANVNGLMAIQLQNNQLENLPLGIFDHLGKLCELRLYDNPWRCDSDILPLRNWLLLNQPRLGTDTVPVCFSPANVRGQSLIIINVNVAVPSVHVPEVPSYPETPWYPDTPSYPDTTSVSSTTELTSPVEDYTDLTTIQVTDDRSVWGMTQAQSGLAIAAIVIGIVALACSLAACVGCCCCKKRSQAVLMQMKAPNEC

Q: Which results are given for B1?
A: Internalization in U87MG cells (10 nM, 24 hours), FOB = fold over background (IgG control): 2.57 fold over background (IgG control); Internalization in U87MG cells (10 nM, 24 hours), FOS = fold over samrotamab: 1.83 fold over samrotamab

Q: Which “Internalization in U87MG cells (10 nM, 24 hours), FOB = fold over background (IgG control)” value does the source give for B2 here?
A: The value was 2.53 fold over background (IgG control).

Q: And the “Internalization in U87MG cells (10 nM, 24 hours), FOS = fold over samrotamab” value?
A: Its value is 1.79 fold over samrotamab.

Q: What does the source list for B3?
A: Internalization in U87MG cells (10 nM, 24 hours), FOB = fold over background (IgG control): 2.69 fold over background (IgG control); Internalization in U87MG cells (10 nM, 24 hours), FOS = fold over samrotamab: 1.97 fold over samrotamab

Each binder was assayed against T2, Human LRRC15 Protein, His Tag (Acro Biosystems) (human, UniProt Q8TF66 22-538, limits assumed) (assay: BLI; dissociation pH 7.4 black, pH 5.4 grey [1/2); D00006 FIG. 1E (1/2]).
T2 sequence (looked up): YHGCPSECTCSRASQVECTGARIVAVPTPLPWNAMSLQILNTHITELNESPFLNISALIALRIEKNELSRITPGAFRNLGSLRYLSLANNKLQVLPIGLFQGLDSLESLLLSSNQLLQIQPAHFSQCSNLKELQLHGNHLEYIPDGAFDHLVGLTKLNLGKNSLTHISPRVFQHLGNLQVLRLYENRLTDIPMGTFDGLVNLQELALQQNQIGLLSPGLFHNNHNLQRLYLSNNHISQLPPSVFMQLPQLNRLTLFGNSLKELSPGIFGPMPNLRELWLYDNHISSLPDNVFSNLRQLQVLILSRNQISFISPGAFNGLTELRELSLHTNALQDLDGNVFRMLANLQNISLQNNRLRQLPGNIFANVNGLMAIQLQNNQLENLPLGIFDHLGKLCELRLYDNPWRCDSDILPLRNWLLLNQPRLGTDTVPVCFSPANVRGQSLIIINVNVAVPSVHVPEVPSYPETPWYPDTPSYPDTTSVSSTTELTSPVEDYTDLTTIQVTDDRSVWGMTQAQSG
Source text: For each individual plot, antigen binding proteins were captured on anti-human Fc biosensors and associated with LRRC15 at pH 7.4. Dissociation was at pH 7.4 (black) or pH 5.4 (grey). Major X-axis ticks=100 seconds, with left dashed vertical line=0 seconds. Major Y-axis ticks=0.5 nm and octet plots are shown MYT5712 and MYT6080-MYT6121.
Multiple LRRC15-binding monoclonal antibodies have been described in the literature and can be used as a template for engineering pH-dependent binding. We selected discovery RabMAb clone 15G7 (rabbit VH SEQ ID NO: 378, rabbit VL SEQ ID NO: 451; humanized VH SEQ ID NO: 382, humanized VL SEQ ID NO: 455) as a LRRC15-binding monoclonal antibody for pH-engineering via histidine scanning. […] To generate pH-dependent sequence variants, individual amino acid residues within the heavy chain CDRs were systematically substituted with a histidine (or alanine if H was already present in a given position; e.g., MYT6099), one at a time (rabbit, MYT6080-6121). Desirable mutations were transferred to a humanized framework (humanized, MYT 8387-8411). After allowing for four days of protein expression, cell culture supernatants were collected, quantified by SDS-PAGE analysis, and the pH dependence of the variant was evaluated using biolayer interferometry (BLI) on an Octet RED 96e instrument. Briefly, cell culture supernatants were diluted based on qualitative expression level of the variant determined by visual examination of SDS-PAGE gels, 5 μL of cell culture supernatant was diluted into 195 μL of 1×PBST, pH 7.4 for high expressors, 25 μL of cell culture supernatant was diluted into 175 μL of 1×PBST, pH 7.4 for medium expressors and 100 μL of cell culture supernatant was diluted into 100 μL of 1×PBST, pH 7.4 for low expressors for loading onto the sensor tips.

Q: Does B4 bind?
A: Result: binds

Q: Does B5 bind?
A: Result: binds

Q: Does B6 bind?
A: Result: binds

Q: Does B7 bind?
A: Result: binds

Q: Does B8 bind?
A: Result: binds

Q: Does B9 bind?
A: Result: binds

Q: Does B10 bind?
A: Result: binds

Q: Does B11 bind?
A: Result: binds

Q: Does B12 bind?
A: Result: binds

Q: Does B13 bind?
A: Result: binds

Q: Does B14 bind?
A: Result: binds

Q: Does B15 bind?
A: Result: binds

Q: Does B16 bind?
A: Result: binds

Q: Does B17 bind?
A: Result: binds

Q: Does B18 bind?
A: Result: binds

Q: Does B19 bind?
A: Result: binds

Q: Does B20 bind?
A: Result: binds

Q: Does B21 bind?
A: Result: binds

Q: Does B22 bind?
A: Result: binds

Q: Does B23 bind?
A: Result: binds

Q: Does B24 bind?
A: Result: binds

Q: Does B25 bind?
A: Result: binds

Q: Does B26 bind?
A: Result: binds

Q: Does B27 bind?
A: Result: binds
